Data taken from patent US20260207767A1.

Key:
[1] = target: cynomolgus PD-1 expressed on cells (cynomolgus monkey) (UniProt B0LAJ3); experiment: flow cytometry, CHO-S Cyno-PD-1
[2] = target: recombinant hPD-1 (construct not stated) (human) (UniProt Q15116); experiment: ELISA
[3] = target: recombinant cynoPD-1 (construct not stated) (cynomolgus monkey) (UniProt B0LAJ3); experiment: ELISA
[4] = target: human PD-1 expressed on cells (human) (UniProt Q15116); experiment: flow cytometry, CHO-S hPD-1
Chain of human PD-1 expressed on cells (human) (Q15116 25-288): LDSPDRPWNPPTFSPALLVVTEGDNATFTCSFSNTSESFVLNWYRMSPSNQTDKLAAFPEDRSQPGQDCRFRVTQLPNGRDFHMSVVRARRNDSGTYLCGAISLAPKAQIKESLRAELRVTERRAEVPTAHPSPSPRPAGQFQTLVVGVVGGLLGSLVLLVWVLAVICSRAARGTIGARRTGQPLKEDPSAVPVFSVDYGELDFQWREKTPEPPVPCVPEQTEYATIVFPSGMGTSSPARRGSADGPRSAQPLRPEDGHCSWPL

Chain of recombinant hPD-1 (construct not stated) (human) (Q15116 25-167 limits assumed): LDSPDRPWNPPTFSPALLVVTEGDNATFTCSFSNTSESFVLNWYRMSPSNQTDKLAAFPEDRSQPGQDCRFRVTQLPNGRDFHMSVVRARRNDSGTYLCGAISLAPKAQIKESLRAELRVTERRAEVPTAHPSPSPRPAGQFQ
Chain of cynomolgus PD-1 expressed on cells (cynomolgus monkey) (B0LAJ3 entry or part of it limits assumed): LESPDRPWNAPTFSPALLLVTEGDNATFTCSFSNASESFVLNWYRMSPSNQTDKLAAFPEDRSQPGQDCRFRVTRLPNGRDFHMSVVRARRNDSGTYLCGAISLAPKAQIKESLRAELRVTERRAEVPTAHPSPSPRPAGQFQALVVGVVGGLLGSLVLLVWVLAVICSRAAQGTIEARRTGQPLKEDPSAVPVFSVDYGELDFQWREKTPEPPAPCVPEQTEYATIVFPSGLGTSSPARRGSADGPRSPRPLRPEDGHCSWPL
Chain of recombinant cynoPD-1 (construct not stated) (cynomolgus monkey) (B0LAJ3 entry or part of it limits assumed): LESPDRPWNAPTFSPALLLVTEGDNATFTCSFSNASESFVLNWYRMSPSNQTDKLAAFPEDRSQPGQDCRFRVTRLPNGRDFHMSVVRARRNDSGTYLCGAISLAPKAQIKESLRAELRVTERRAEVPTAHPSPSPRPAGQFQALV

Max MFI [1]: 206 MFI
Max OD [2]: 0.05 OD
Max OD [3]: 0.07 OD
Max MFI [4]: 184 MFI
Substance: NC.hIgG1 (antibody)
